Paper PMC10349087 (Nature Communications, 2023)

B1: NIV-10 Fab (Fab, V domains shown)
VH: EVQLVESGGGLVQPGGSLRLSCAASGFTFYSYWMTWVRQAPGKGLEWVANIKHDESESHYVDSVRGRFTISRDNAKNSVYLQMKGLRAEDTAVYYCARDGGYNILTAYYHAPSYWGQGTLVTVSS
VL: QSALTQPASVSGSPGQSITISCTGTSSDVGGYNFVSWYRQYPGKAPQLMIYDVSRRPSGDSDRFSGSKSGNTASLTISGLQAEDEAEYHCSSYTGRSPYVVFGGGTKVTVL
B2: NIV-11 Fab (Fab, V domains shown)
VH: QLVQSGPEVKKPGTSVKVSCKASGFTFYYSAVQWVRQARGQRLEWLGWMAVGSGKANYAQKFQERLTLTRDMSTSTAYMELSSLRSEDTAVYYCAAPNCTGGSCYDGFNLWGQGTVVTVSS
VL: EIVLTQSPGTLSLSPGDRAILSCRASQTVNSNYLAWYQQKPGQAPRLLIYGTSSRATGIPDRFSGSGSGTDFTLTISRLEPEDFAVYYCQQYGSSPWLFGQGTKVEIK
B3: NIV-13 Fab (Fab, V domains shown)
VH: EVQLLESGGGLVQPGGSLRLSCAASGFTFSRYALSWVRQAPGKGLEWVSAISGAAITTYYADSVKGRFTISRDDSRNTLFMQMDSLRAEDTAVYYCAKGDYYDSSGYLAEYFPHWGQGTLVTVSS
VL: SYELTQPPSVSVSPGQTARITCFADALPKQHAYWYQQKAGQAPVLVIFKDTERPSGIPKRFSGSRSGATVTLTISGVQAEDEADYYCQSTDISGVLFGGGTKLTVL
B4: NIV-8 Fab (Fab, V domains shown)
VH: EVQLVESGGGVVQPGRSLRLSCAASGFKFSKFAMHWVRQAPGKGPEWVAVISYDGNQYHSADSVKGRFTISRDNSFNTLYLQMNSLGPEDTAVYYCARDGPDTSGYYANIYFDFWGQGTLVTVSS
VL: QSVLTQPPSVSGAPGQRVTISCTGSSSNIGAGYDVHWYQQLPGRAPKLLIFDNNNRPSGVPDRFSGSKSGTSASLAITGLQTEDEAYYYCQSYDNSLILAVFGGGTKVTVL

Legend:
Experiment in all cases: BLI
Settings in all cases: both partners purified
[1] = target: SARS-CoV-2 spike receptor-binding domain, Omicron BA.1 variant (amino acids 331-529), biotinylated (SARS-CoV-2, Omicron BA.1, G339D | S371L | S373P | S375F | K417N | N440K | G446S | S477N | T478K | E484A | …, biotin (RBD expression vector co-expressed with BirA-Flag, 100 μM biotin added))
[2] = target: SARS-CoV-2 spike receptor-binding domain, Delta variant (amino acids 331-529), biotinylated (SARS-CoV-2, Delta, L452R | T478K, biotin (RBD expression vector co-expressed with BirA-Flag, 100 μM biotin added))
[3] = target: SARS-CoV-2 spike receptor-binding domain, Omicron BA.2 variant (amino acids 331-529), biotinylated (SARS-CoV-2 Omicron BA.2, G504D | S371F | S375F | T376A | D405N | R408S | K417N | N440K | S477N | T478K | …, biotin (RBD expression vector co-expressed with BirA-Flag, 100 μM biotin added))

| Binder | Kd [1] | koff [1] | kon [1] | Kd [2] | koff [2] | kon [2] | Kd [3] | koff [3] | kon [3] |
| --- | --- | --- | --- | --- | --- | --- | --- | --- | --- |
| B1 | 96.6 nM | 0.0124 s⁻¹ | 129000 M⁻¹ s⁻¹ | 0.00371 nM | 1.31e-06 s⁻¹ | 354000 M⁻¹ s⁻¹ | 76.1 nM | 0.0064 s⁻¹ | 84100 M⁻¹ s⁻¹ |
| B2 | 9.14 nM | 0.00335 s⁻¹ | 366000 M⁻¹ s⁻¹ | 0.00478 nM | 5.08e-07 s⁻¹ | 106000 M⁻¹ s⁻¹ | 11 nM | 0.00355 s⁻¹ | 322000 M⁻¹ s⁻¹ |
| B3 | 0.802 nM | 0.000248 s⁻¹ | 309000 M⁻¹ s⁻¹ | 0.0919 nM | 3.72e-05 s⁻¹ | 405000 M⁻¹ s⁻¹ | 1.49 nM | 0.000369 s⁻¹ | 247000 M⁻¹ s⁻¹ |
| B4 | 24.7 nM | 0.00312 s⁻¹ | 126000 M⁻¹ s⁻¹ | 0.00475 nM | 1.28e-06 s⁻¹ | 269000 M⁻¹ s⁻¹ | 20 nM | 0.00206 s⁻¹ | 103000 M⁻¹ s⁻¹ |
